This data set concerns the molecule itself. Kind of data set: negative stain electron microscopy; Dam1 complex-MT reaction mix adsorbed on glow-discharged grids, washed with 25 mM HEPES pH 7.4, 500 mM NaCl, 1 mM EDTA, stained with 0.7% uranyl formate; rings of the complex around MTs.

B1: S. cerevisiae Dam1 complex containing Dad2-FL (DASH^WT) (complex)
chain 1: MMASTSNDEEKLISTTDKYFIEQRNIVLQEINETMNSILNGLNGLNISLESSIAVGREFQSVSDLWKTLYDGLESLSDEAPIDEQPTLSQSKTK
chain 2: MDSIDEQIAIKRKELQSLQKITSLTDGLKIQLTELNEQIKEMGMNADSVAQLMNNWDSIINNISQASLGLLQYAEGDYEIGPWKDSKKKESEQSNETGLEAQENDKNDEDNDEDEDLVPLPETMVRIRVDGNE
chain 3: MEHNLSPLQQEVLDKYKQLSLDLKALDETIKELNYSQHRQQHSQQETVSPDEILQEMRDIEVKIGLVGTLLKGSVYSLILQRKQEQESLGSNSK
chain 4: MENPHEQVQANILSRIIGNVKRLNESVAILNQELVTINNRNKNLEIMGAICDNYHSSVQFNLEATNNKKPPL
chain 5: MSEDKAKLGTTRSATEYRLSIGSAPTSRRSSMGESSSLMKFADQEGLTSSVGEYNENTIQQLLLPKIRELSDSIITLDSNFTRLNFIHESLADLNESLGSLLYGIMSNSWCVEFSQAPHDIQDDLIAIKQLKSLEDEKNNLVMELSNMERGIKRKKDEQGENDLAKASQNKQFNQPLFPSSQVRKYRSYDNRDKRKPSKIGNNLQVENEEDYEDDTSSEASFVLNPTNIGMSKSSQGHVTKTTRLNNNTNSKLRRKSILHTIRNSIASGADLPIENDNVVNLGDLHPNNRISLGSGAARVVNGPVTKNRNSMFSGRAERKPTESRHSVAKKTEKKINTRPPFR
chain 6: MSEQSQLDDSTIDKLIPQIFNEMRSNLNNTTNKFPKSTGGGASDNISANSNSIRSFNSITTQSLLKESESLDKITAMIKNVTAALKNNLPVYVNQVHEVCKSTNSILDSWINIHSQAGYIHKLMSDQTYLKLINDRLHNENVNTNDEDGSTLHNVIALKKKEILDLRQKLENRKGEKDAAPAKPPNQGLNPRYGVQSGRRPVPSAGISNNGRVRKTHVPASKRPSGIPRVTNRWTKPTASSSRKMFR
chain 7: MDSASKEETLEKLDQEITVNLQKIDSNLSFCFHKITQDIIPHVATYSEICERIMDSTEWLGTMFQETGLVNLQANAAAPVGNAPVKSLVSNNVGIFPTSAEEASRQSQTDNGPNEADSAVHVNRDVHSMFNNDSIDDFHTANITSTGQILKLPDSSDEDTGSEAVPSREQTDLTGEGHGGADDEQDESTIQRQSRKRKISLLLQQQYGSSSSMVPSPIVPNKMRKQLAHEEHINNDGDNDDENSNNIESSPLKQGHHHPKGQADDNNEGPDEEESTKEVPKPGTIIHFSTNR
chain 8: MNANKQRQYNQLAHELRELQTNLQETTKQLDIMSKQCNENLVGQLGKVHGSWLIGSYIYYMEQMLGKTQ
chain 9: MTDALEQSVLALEGTVSVLKDSVESLKCANEPSTNLASTMLQTKRVFRLVPEYDVERSKLDLIEEVEPLVRTLGDKLRKSMGRMQRELDTLQQTYELNDLRLKKNISMDDDDALNSPDMGQEYEGRDADDVVMMASSTNEELEELKKLKEKKKQLENKLEILKQK
chain 10: MGESLDRCIDDINRAVDSMSTLYFKPPGIFHNAILQGASNKASIRKDITRLIKDCNHDEAYLLFKVNPEKQSVSRRDGKEGVFDYVIKRDTDMKRNRRLGRPGEKPIIHVPKEVYLNKDRLDLNNKRRRTATTSGGGLNGFIFDTDLIGSSVISNSSSGTFKALSAVFKDDPQIQRLLYALENGSVLMEEESNNQRRKTIFVEDFPTDLILKVMAEVTDLWPLTEFKQDYDQLYHNYEQLSSKLRFIKKEVLLQDDRLKTMSQYHPSSSHDVAKIIRKEKDEIRRLEMEIANLQE
notes: Dad1, S. cerevisiae, subunit of the Dam1 (DASH) complex; Dad2, S. cerevisiae, subunit of the Dam1 (DASH) complex; Dad2-FL; Dad3, S. cerevisiae, subunit of the Dam1 (DASH) complex; Dad4, S. cerevisiae, subunit of the Dam1 (DASH) complex; Dam1, S. cerevisiae, subunit of the Dam1 (DASH) complex; Duo1, S. cerevisiae, subunit of the Dam1 (DASH) complex; Ask1, S. cerevisiae, subunit of the Dam1 (DASH) …
B1: the binding result is “binds”.

(Values after article PMC10551642, “Functional plasticity in chromosome–microtubule coupling on the evolutionary time scale” (Life Science Alliance, 2023).)
